{"source": "paper PMC13270999", "about": "“Chronology of tRNA structural dynamics prior to and during interaction with a pseudouridine synthase”", "molecules": {"B1": {"name": "Ψ55 tRNA eMet(CAU), Cy3/Cy5 (structured_RNA)", "RNA": "GCUUCAGUAGCUCAGUAGGAAGAGCGUCAGUCUCAUAAUCUGAAGGUCGAGAGUUCGAACCUCCCCUGGAGCACCA", "modifications": "pseudouridine at position 55 (second U of GAGAGUUCGAA)"}, "B2": {"name": "U55 tRNA eMet(CAU), Cy3/Cy5 (structured_RNA)", "RNA": "B1 RNA"}}, "key": {"[1]": {"target": "GST-tagged full-length S. cerevisiae Pus4 (S. cerevisiae) (UniProt P48567)", "experiment": "sucrose gradient ultracentrifugation; 10 uM purified GST-Pus4 with and without 10 uM total yeast tRNA, 30 min at room temperature; 10-30% sucrose step gradient in Buffer B (50 mM Tris-HCl pH 7.5, 100 mM KCl), SW 55 Ti, 4 h at 55,000 rpm; fractions read by SDS-PAGE; standards beta-amylase and carbonic anhydrase; apparent molecular …"}, "[2]": {"target": "T1, GST-Pus4 (Saccharomyces cerevisiae, UniProt P48567 1-403)", "T1 sequence (P48567 whole entry)": "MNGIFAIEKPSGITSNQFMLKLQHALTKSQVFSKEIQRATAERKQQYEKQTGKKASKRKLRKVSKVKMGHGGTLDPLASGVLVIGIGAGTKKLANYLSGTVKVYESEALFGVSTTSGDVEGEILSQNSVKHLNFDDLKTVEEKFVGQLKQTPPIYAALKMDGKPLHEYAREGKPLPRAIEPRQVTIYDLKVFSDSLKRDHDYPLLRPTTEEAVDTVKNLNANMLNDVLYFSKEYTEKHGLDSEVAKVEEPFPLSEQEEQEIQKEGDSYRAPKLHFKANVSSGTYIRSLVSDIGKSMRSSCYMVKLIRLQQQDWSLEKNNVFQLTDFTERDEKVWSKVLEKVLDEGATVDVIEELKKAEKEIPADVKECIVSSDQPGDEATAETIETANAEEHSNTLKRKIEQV", "experiment": "smFRET / PIFE; 200 nM Pus4; BLI: 50 mM Tris-HCl pH 7.5, 100 mM KCl, 0.02% Tween-20, 30 °C; EMSA: 50 mM Tris-HCl pH 7.5, 100 mM KCl, 30 min room temperature, 8% native PAGE in TBE at 4 °C", "conditions": "protein: recombinant; tags: N-terminal GST, Factor Xa site (pGEX-5X-3); tag not removed; label: 5' biotin; Cy3 at U4 C5; Cy5 at U41 C5; tRNA cloverleaf"}, "[3]": {"target": "T1, GST-Pus4", "experiment": "EMSA; 30 nM RNA; all bound at >=200 nM Pus4, 30 min; labelled form assumed; BLI: 50 mM Tris-HCl pH 7.5, 100 mM KCl, 0.02% Tween-20, 30 °C; EMSA: 50 mM Tris-HCl pH 7.5, 100 mM KCl, 30 min room temperature, 8% native PAGE in TBE at 4 °C", "conditions": "protein: recombinant; tags: N-terminal GST, Factor Xa site (pGEX-5X-3); tag not removed; label: 5' biotin; Cy3 at U4 C5; Cy5 at U41 C5; tRNA cloverleaf"}}, "data": [{"molecule": "GST-tagged full-length S. cerevisiae Pus4 (from UniProt P48567 1-403) (enzyme)", "values": [{"measurement": "stoichiometry N", "setting": "[1]", "value": 2}]}, {"molecule": "B1", "values": [{"measurement": "binding result", "setting": "[2]", "value": "binds"}]}, {"molecule": "B2", "values": [{"measurement": "binding result", "setting": "[3]", "value": "binds"}]}]}
